In patent US20040265963:

System: T1, Tkip (tyrosine kinase inhibitor peptide), WLVFFVIFYFFR
T1 sequence: WLVFFVIFYFFR

recombinant human Src
c-src tyrosine phosphorylation of a synthetic substrate peptide, in vitro kinase assay: Tkip at 50 µM failed to inhibit c-src phosphorylation of a protein substrate
